For one experiment, the target named is M2LTKGS peptide (influenza A virus). Briefly: peptide ELISA, avian flu M2 variants.
The target of another experiment is M2DLTGS peptide (influenza A virus). Briefly: peptide ELISA, avian flu M2 variants.

B1: human anti-M2 monoclonal antibody no. Z3G1 (recombinant IgG1 type Z3, CHO; ATCC PTA-5967) (antibody, V domains shown)
VH: QVQLVQSGAEVKKPGASVKVSCKASGYTFTSYGISWVRQAPGQGLEWMGWISAYNGNTNYAQKLQGRVTMTTDTSTSTAYMELRSLRSDDTAVYYCARAAAGGYFQHWGQGTLVTVSS
VL: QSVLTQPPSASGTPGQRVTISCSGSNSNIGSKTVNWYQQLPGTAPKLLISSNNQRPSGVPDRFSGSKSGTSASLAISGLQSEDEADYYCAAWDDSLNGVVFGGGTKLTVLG
In the case of B1, the binding result with M2LTKGS peptide and with M2DLTGS peptide was “binds” throughout.

The record behind these values is US20090196872A1 (KIRIN BEER, published 2009).
